According to PMC6306002:

Tested on: T1, OhsR:C125S C125S (Corynebacterium glutamicum), ORF:a3d30e29
T1 sequence: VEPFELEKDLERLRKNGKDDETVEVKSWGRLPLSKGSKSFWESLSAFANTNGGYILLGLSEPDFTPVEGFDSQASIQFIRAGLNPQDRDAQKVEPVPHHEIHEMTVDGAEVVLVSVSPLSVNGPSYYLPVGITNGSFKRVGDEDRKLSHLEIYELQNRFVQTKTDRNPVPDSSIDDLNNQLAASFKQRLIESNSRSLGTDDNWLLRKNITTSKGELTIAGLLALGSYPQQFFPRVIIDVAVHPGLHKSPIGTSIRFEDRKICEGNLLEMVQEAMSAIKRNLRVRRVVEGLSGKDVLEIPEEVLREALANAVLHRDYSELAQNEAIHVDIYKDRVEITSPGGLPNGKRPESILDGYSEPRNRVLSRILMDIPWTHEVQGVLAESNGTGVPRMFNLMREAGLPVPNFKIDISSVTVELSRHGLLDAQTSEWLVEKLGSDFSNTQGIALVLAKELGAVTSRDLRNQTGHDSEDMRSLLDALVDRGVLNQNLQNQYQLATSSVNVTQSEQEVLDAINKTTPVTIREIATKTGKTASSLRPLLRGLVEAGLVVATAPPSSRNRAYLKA
Test: EMSA
Conditions: EMSA: 20 mM Tris-HCl pH 7.4, 4 mM MgCl2, 100 mM NaCl, 10% glycerol, room temperature 30 min; 20 ng DNA, 0-4 ug OhsR; 6% native PAGE, 0.5x TBE, SYBR Green

**Q.** For “CACCTTGTTGGTGGGCCGGGATTTTTGTTGTTTAGATTTTTGAAAGCACACTTTTGTCCCTTAACTAGTGCGTGTGTACATTCGACACCAAGATTTGGGCAATATGGTGCCCAAAATCAGGAAATCTTGCTGTCTAATGCACAACGGAAAACTGCTCACGGACGAACTAGTTGTAGCGAGCGTATTCTTTGTGTTCTCTC (double strand) [Pohr (ohr promoter, 200 bp)]”, which binding is on record?
**A.** The binding was “no binding”.
